This note sets out measurements from patent publication US20180303952A1 (CYTOMX THERAPEUTICS, published 2018).

Where a chain is given by its changes, count along the chain named.

In assay [1] the target is T1, human CD147 protein (adsorbed to ELISA plates) (human, UniProt P35613-2 22-205, limits assumed).
T1 construct: also called human CD147 polypeptide; Basigin
T1 sequence (looked up): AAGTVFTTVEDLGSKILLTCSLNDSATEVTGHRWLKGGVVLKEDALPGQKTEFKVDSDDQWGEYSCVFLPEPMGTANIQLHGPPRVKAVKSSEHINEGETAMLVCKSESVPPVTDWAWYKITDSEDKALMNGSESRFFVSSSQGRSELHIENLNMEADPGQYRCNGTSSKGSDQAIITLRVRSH
Nature of the assay: ELISA, human CD147 protein adsorbed to plate, anti-mouse Fc-peroxidase detection; apparent KD. As for the experimental part:
The antibody of the present disclosure that was assayed in this exemplary study was hu 3A11 Lc1/Hc1 (VL of SEQ ID NO: 5 and VH of SEQ ID NO: 1). Mouse anti-human CD147 monoclonal antibody 3A11 (VL of SEQ ID NO: 8 and VH of SEQ ID NO: 4) was assayed as a reference. Using a standard ELISA protocol, human CD147 protein was absorbed to ELISA plates and subsequently incubated with the indicated concentration of antibody of the present disclosure. Bound humanized antibody of the present disclosure was detected with anti-human Fab-peroxidase secondary antibody and the mouse 3A11 monoclonal antibody was detected with anti-mouse Fc-peroxidase secondary antibody, and Ultra TMB detection (Thermo Fisher Scientific).
On the technique in general: An ELISA detects its analyte on a solid surface through an enzyme-linked reagent.

For assay [2], the target named is T1, human CD147 protein (adsorbed to ELISA …). Description: ELISA, human CD147 protein adsorbed to plate, intact activatable antibody; apparent KD. The procedure: Humanized anti-human CD147 antibodies of the present disclosure hu 3A11 Hc1/Lc1 (VL of SEQ ID NO: 5 and VH of SEQ ID NO: 1) were used as a control.
Using a standard ELISA protocol, human CD147 protein was absorbed to ELISA plates and subsequently incubated with the indicated concentration of antibody of the present disclosure. Bound humanized activatable antibody of the present disclosure was detected with anti-human Fab-peroxidase secondary antibody and Ultra TMB detection (Thermo Fisher Scientific).

Assay [3] has the same target. The description is as above. The procedure: For the exemplary assay depicted in FIGS. 7A-7C, standard ELISA protocol was used, in which human CD147 protein was absorbed to ELISA plates and subsequently incubated with the indicated concentration of antibody of the present disclosure. Bound humanized activatable antibody of the present disclosure was detected with anti-human Fab-peroxidase secondary antibody and Ultra TMB detection (Thermo Fisher Scientific).
The source holds these as a separate data set.

For assay [4] the target is unchanged. Description: ELISA, human CD147 protein adsorbed to plate, anti-human Fab-peroxidase detection; apparent KD. As for the experimental part:
The antibodies of the present disclosure that were assayed in this exemplary study were hu 3A11 Lc1/hu 3A11 Hc1 (VL of SEQ ID NO: 5 and VH of SEQ ID NO: 1), hu 3A11 Lc2/hu 3A11 Hc2 (VL of SEQ ID NO: 6 and VH of SEQ ID NO: 2), hu 3A11 Lc4/hu 3A11 Hc2 (VL of SEQ ID NO: 8 and VH of SEQ ID NO: 2). Using a standard ELISA protocol, human CD147 protein was absorbed to ELISA plates and subsequently incubated with the indicated concentration of antibody of the present disclosure. Bound humanized antibody of the present disclosure was detected with anti-human Fab-peroxidase secondary antibody, and Ultra TMB detection (Thermo Fisher Scientific).

B1: mouse anti-human CD147 monoclonal antibody 3A11 (antibody, V domains shown)
VH: EVKLEESGGGLVQPGGSMKLSCVASGFTFSNYWMNWVRQSPEKGLEWVGEIRLKSYNYATHYVESVEGRFTISRDDSKSSVYLQMNNLRAEDTGIYYCTAAGTDYWGQGTTLTVSS
VL: SIVMTQIPKILLVSAGDRVTITCKASQSVRTDVAWYQQKPGQSPKLLIYYSSNRYTGVPDRFTGSGYGTDFTFTISTVQAEDLAVYFCQQDYSSPFTFGSGTKLEIK
notes: Mouse hybridoma antibody, detected with anti-mouse Fc secondary antibody; also called Mouse 3A11; mu 3A11
B1: in assay [1], the Kd stood at 0.293 nM.

B2: anti-human CD147 activatable antibody hu 3A11 Hc1/Lc1-414-3001 (antibody)
VH: EVQLVESGGGLVQPGGSLRLSCAASGFTFSNYWMDWVRQAPGKGLEWVGEIRLKSYNYATHYAASVKGRFTISRDDSKNSVYLQMNSLKTEDTAVYYCTAAGTDYWGQGTLVTVSS
VL: THGPCHFKPNCSYPTGGGSSGGSAVGLLAPPGGLSGRSDNHGGSDIQMTQSPSSLSASVGDRVTITCRASQSVRTDVGWYQQKPGKAPKLLIYYSSNRYTGVPSRFSGSGSGTDFTLTISSLQPEDFATYYCQQDYSSPYTFGQGTKLEIK
notes: also called hu 3A11-414-3001
Consider B2, for which the Kd in assay [2] was 16 nM; in assay [3] it was 24.7 nM.

B3: anti-human CD147 activatable antibody hu 3A11 Hc1/Lc1-414.1-3001 (antibody, V domains shown)
VH: B2 VH
VL: THGPCHFKPNCGGGSSGGSAVGLLAPPGGLSGRSDNHGGSDIQMTQSPSSLSASVGDRVTITCRASQSVRTDVGWYQQKPGKAPKLLIYYSSNRYTGVPSRFSGSGSGTDFTLTISSLQPEDFATYYCQQDYSSPYTFGQGTKLEIK
notes: also called hu 3A11-414.1-3001
On to B3, for which the Kd in assay [3] came to 13.8 nM.

B4: anti-human CD147 activatable antibody hu 3A11 Hc1/Lc1-419.3-2012 (antibody, V domains shown)
VH: B2 VH
VL: LHGPCHYDLKCKGGGSSGGSISSGLLSGRSANPGGGSDIQMTQSPSSLSASVGDRVTITCRASQSVRTDVGWYQQKPGKAPKLLIYYSSNRYTGVPSRFSGSGSGTDFTLTISSLQPEDFATYYCQQDYSSPYTFGQGTKLEIK
notes: also called hu 3A11-419.3-2012
As for B4, the Kd in assay [3] worked out at 10 nM.

B5: anti-human CD147 activatable antibody hu 3A11 Hc1/Lc1-415.1-2012 (antibody, V domains shown)
VH: B2 VH
VL: LHGPCHFNNCNTLGGGSSGGSISSGLLSGRSANPGGGSDIQMTQSPSSLSASVGDRVTITCRASQSVRTDVGWYQQKPGKAPKLLIYYSSNRYTGVPSRFSGSGSGTDFTLTISSLQPEDFATYYCQQDYSSPYTFGQGTKLEIK
notes: also called hu 3A11-415.1-2012
For B5, the Kd in assay [3] came out at 4.68 nM.

B6: anti-human CD147 activatable antibody hu 3A11 Hc1/Lc1-414.3-2012 (antibody, V domains shown)
VH: B2 VH
VL: THGPCHFKPNCAYPTGGGSSGGSISSGLLSGRSANPGGGSDIQMTQSPSSLSASVGDRVTITCRASQSVRTDVGWYQQKPGKAPKLLIYYSSNRYTGVPSRFSGSGSGTDFTLTISSLQPEDFATYYCQQDYSSPYTFGQGTKLEIK
notes: also called hu 3A11-414.3-2012
Consider B6, for which the Kd in assay [3] stood at 5.92 nM.

B7: humanized anti-human CD147 antibody hu 3A11 Lc2/hu 3A11 Hc2 (antibody, V domains shown)
VH: B2 VH with D35N, V81L, T99A, A100R
VL: DIQMTQSPSSLSASVGDRVTITCKASQSVRTDVAWYQQKPGKAPKLLIYYSSNRYTGVPSRFSGSGSGTDFTLTISSLQPEDFATYYCQQDYSSPFTFGQGTKLEIK
notes: also called hu 3A11 (hu Lc2/hu Hc2)
On to B7, for which, in assay [4], the Kd turned out to be 0.726 nM.

B8: anti-human CD147 activatable antibody hu 3A11 Hc1/Lc1-419.2-3001 (antibody, V domains shown)
VH: B2 VH
VL: LHGPCHYDLKCKNNGGGSSGGSAVGLLAPPGGLSGRSDNHGGSDIQMTQSPSSLSASVGDRVTITCRASQSVRTDVGWYQQKPGKAPKLLIYYSSNRYTGVPSRFSGSGSGTDFTLTISSLQPEDFATYYCQQDYSSPYTFGQGTKLEIK
notes: also called hu 3A11-419.2-3001
For the molecule B8, the Kd in assay [3] was 20.8 nM.

B9: anti-human CD147 activatable antibody hu 3A11 Hc1/Lc1-419.3-3001 (antibody, V domains shown)
VH: B2 VH
VL: LHGPCHYDLKCKGGGSSGGSAVGLLAPPGGLSGRSDNHGGSDIQMTQSPSSLSASVGDRVTITCRASQSVRTDVGWYQQKPGKAPKLLIYYSSNRYTGVPSRFSGSGSGTDFTLTISSLQPEDFATYYCQQDYSSPYTFGQGTKLEIK
notes: also called hu 3A11-419.3-3001
Consider B9, for which, in assay [3], the Kd stood at 73.5 nM.

B10: humanized anti-human CD147 antibody hu 3A11 Lc4/hu 3A11 Hc2 (antibody, V domains shown)
VH: B2 VH with D35N, V81L, T99A, A100R
VL: B7 VL with A13V, S67Y, L73F, L78V
notes: also called hu 3A11 (hu Lc4/hu Hc2)
B10: the Kd in assay [4] came out at 0.902 nM.

B11: anti-human CD147 activatable antibody hu 3A11 Hc1/Lc1-414.4-2012 (antibody, V domains shown)
VH: B2 VH
VL: B6 VL with K8R
notes: also called hu 3A11-414.4-2012
Take B11: the Kd in assay [3] worked out at 6.73 nM.

B12: anti-human CD147 activatable antibody hu 3A11 Hc1/Lc1-419.1-3001 (antibody)
VH: B2 VH
VL: B2 VL with T1L, F7Y, K8D, P9L, N10K, S12K, Y13Q, P14N
notes: also called hu 3A11-419.1-3001
Take B12: the Kd in assay [3] worked out at 44 nM.

B13: anti-human CD147 activatable antibody hu 3A11 Hc1/Lc1-415-2012 (antibody, V domains shown)
VH: B2 VH
VL: B6 VL with T1L, K8N, P9N, N10C, C11N, A12T, Y13L, P14K, T15L
notes: also called hu 3A11-415-2012
Turning to B13, the Kd in assay [3] came out at 1.43 nM.

B14: anti-human CD147 activatable antibody hu 3A11 Hc1/Lc1-414.2-3001 (antibody)
VH: B2 VH
VL: B2 VL with N10Q
notes: also called hu 3A11-414.2-3001
In the case of B14, the Kd in assay [3] was 15.7 nM.

B15: anti-human CD147 activatable antibody hu 3A11 Hc1/Lc1-414.3-3001 (antibody)
VH: B2 VH
VL: B2 VL with S12A
notes: also called hu 3A11-414.3-3001
For B15, in assay [3], the Kd amounted to 20.2 nM.
